Measured values published in paper PMC10184913.

B1: GmC4H14 (Glycine max) (protein)
chain: MDLLLLEKTLIGLFLAAVVAIAVSTLRGRKFKLPPGPLPVPIFGNWLQVGDDLNHRNLTDLAKKFGDIFLLRMGQRNLVVVSSPELAKEVLHTQGVEFGSRTRNVVFDIFTGKGQDMVFTVYGEHWRKMRRIMTVPFFTNKVVQQYRHGWESEAAAVVEDVKNNPDAAVSGTVIRRRLQLMMYNNMYRIMFDRRFESEEDPIFQRLRALNGERSRLAQSFEYNYGDFIPILRPFLKGYLKICKEVKETRLKLFKDYFVDERKKLGSIKSSNNNELKCAIDHILDAQRKGEINEDNVLYIVENINVAAIETTLWSIEWGIAELVNHPEIQQKVRDEIDRVLEAGHQVTEPDIQKLPYLQAVVKETLRLRMAIPLLVPHMNLHDAKLGGYDIPAESKILVNAWWLANNPAHWKKPEEFRPERFLEEELHVEANGNDFRYLPFGVGRRSCPGIILALPILAITLGRLVQNFELLPPPGQSQIDTSEKGGQFSLHILKHSTIVAKPRSF
B2: GmC4H2 (Glycine max) (protein)
chain: MDLLLLEKTLIGLFLAAVVAIAVSTLRGRKFKLPPGPLPVPIFGNWLQVGDDLNHRNLTDLAKKFGDIFLLRMGQRNLVVVSSPELAKEVLHTQGVEFGSRTRNVVFDIFTGKGQDMVFTVYGEHWRKMRRIMTVPFFTNKVVQQYRHGWESEAAAVVEDVKKNPDAAVSGTVIRRRLQLMMYNNMYRIMFDRRFESEEDPIFQRLRALNGERSRLAQSFEYNYGDFIPILRPFLKGYLKICKEVKETRLKLFKDYFVDERKKLGSTKSTNNNNELKCAIDHILDAQRKGEINEDNVLYIVENINVAAIETTLWSIEWGIAELVNHPEIQQKLRDEIDRVLGAGHQVTEPDIQKLPYLQAVVKETLRLRMAIPLLVPHMNLHDAKLGGYDIPAESKILVNAWWLANNPAHWKKPEEFRPERFFEEESLVEANGNDFRYLPFGVGRRSCPGIILALPILGITLGRLVQNFELLPPPGQSQIDTSEKGGQFSLHILKHSTIVAKPRSF
B3: GmC4H20 (Glycine max) (protein)
chain: MGLQIKEPLLFTLVTISLISITKLLHSYFSIPFSPSNLSIAIATLIFVLISYKFSSSSIKHSSTTLPPGPLSVPIFGNWLQVGNDLNHRLLASMSQTYGPVFLLKLGSKNLVVVSDPELATQVLHAQGVEFGSRPRNVVFDIFTGNGQDMVFTVYGDHWRKMRRIMTLPFFTNKVVHNYSNMWEEEMDLVVRDLNVNERVRSEGIVIRRRLQLMLYNIMYRMMFDAKFESQEDPLFIQATRFNSERSRLAQSFEYNYGDFIPLLRPFLRGYLNKCKDLQSRRLAFFNTHYVEKRRQIMAANGEKHKISCAMDHIIDAQMKGEISEENVIYIVENINVAAIETTLWSIEWAVAELVNHPTVQSKIRDEISKVLKGEPVTESNLHELPYLQATVKETLRLHTPIPLLVPHMNLEEAKLGGHTVPKESKVVVNAWWLANNPSWWKNPEEFRPERFLEEECATDAVAGGKVDFRFVPFGVGRRSCPGIILALPILGLVIAKLVKSFQMSAPAGTKIDVSEKGGQFSLHIANHSTVLFHPIKTL

What follows are proteins tested on O=C(O)/C=C/c1ccccc1 (assay: cells, lysate or membranes). Settings: 1 mM NADPH, 50 mM phosphate pH 7.6, 25°C, co-expressed LjCPR1.

Q: B1 was tested. Which Km did it give?
A: 2.74 ± 0.18 µM

Q: For B2, which Km is on record?
A: 6.438 ± 0.74 µM

Q: With B3 as the protein, how does the Km read?
A: 3.83 ± 0.44 µM
